Results from patent US20030208037A1 (CYTOVIA, published 2003).
*: point of attachment. TFB = 2,3,4,5-tetrafluorobenzoyl; PFB = pentafluorobenzoyl; Cbz = O=C(OCc1ccccc1)*; R110 = rhodamine 110

T1: recombinant caspase-3 (UniProt P42574 29-277, limits assumed)
T1 sequence (looked up): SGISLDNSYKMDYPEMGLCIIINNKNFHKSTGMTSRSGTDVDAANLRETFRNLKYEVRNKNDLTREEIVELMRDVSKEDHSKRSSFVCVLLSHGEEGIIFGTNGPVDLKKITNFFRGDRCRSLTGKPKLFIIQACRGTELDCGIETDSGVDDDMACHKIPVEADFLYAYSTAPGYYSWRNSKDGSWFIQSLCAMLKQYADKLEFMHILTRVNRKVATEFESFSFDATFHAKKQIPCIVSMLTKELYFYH


Biological target: T1, recombinant caspase-3
Experiment: cell-based or functional assay

| increase in fluorescence on cleavage of the substrate (cell-free enzyme assay) | increase in fluorescence on cleavage of the substrate (cell-free enzyme assay, 10 uM substrate, 3 hours at 37 C) | Binder |
| --- | --- | --- |
| > 10 fold | – | Cbz-DEVD-{R110-PFB} [N-(Z-Asp-Glu-Val-Asp)-N'-pentafluorobenzoyl-Rhodamine 110] |
| – | ~50 fold | Ac-DEVD-{R110-TFB} [N-(Ac-DEVD)-N'-(2,3,4,5-tetrafluorobenzoyl)-R110] |
